The target of the experiment is human GRP receptor (human, UniProt P30550 1-384). Briefly: cell-based or functional assay.

Starred links: 1 amine or outer side, 2 acyl side, 3 side chain; linkers in the order of their positions; H or OH if unused. Non-standard residues stand in square brackets, D forms with d. No end group written: not given here. *: point of attachment. C20 diacid = O=C(O)CCCCCCCCCCCCCCCCCCC(=O)*; d(γGlu) = O=C(O)[C@@H](CCC(=O)[*:2])N[*:1]; C18 diacid = O=C(O)CCCCCCCCCCCCCCCCC(=O)*; γGlu = O=C(O)[C@H](CCC(=O)[*:2])N[*:1]; Palmitoyl = CCCCCCCCCCCCCCCC(=O)*; 3Pal = N[C@@H](Cc1cccnc1)C(=O)O; Nle = CCCC[C@H](N)C(=O)O; AEEA = NCCOCCOCC(=O)O

Here are results for seven molecules from US20260176319A1 (KALLYOPE, published 2026).

Chain of human GRP receptor (P30550 whole entry): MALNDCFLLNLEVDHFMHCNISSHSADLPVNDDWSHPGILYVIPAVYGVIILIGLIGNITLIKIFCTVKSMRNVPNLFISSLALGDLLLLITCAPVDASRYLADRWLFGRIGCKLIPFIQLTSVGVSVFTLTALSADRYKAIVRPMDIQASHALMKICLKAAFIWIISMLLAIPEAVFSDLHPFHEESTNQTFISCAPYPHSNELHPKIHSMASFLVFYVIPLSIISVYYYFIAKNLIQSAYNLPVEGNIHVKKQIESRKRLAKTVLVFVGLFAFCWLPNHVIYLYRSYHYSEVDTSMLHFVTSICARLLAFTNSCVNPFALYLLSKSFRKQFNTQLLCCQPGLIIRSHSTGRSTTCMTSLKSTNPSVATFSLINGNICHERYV

B1: Peptide 12 (peptide)
peptide: Palmitoyl-[d(γGlu)][AEEA][AEEA]GN[3Pal]WAV[dA]HL[Nle]-NH2
SMILES: CCCCCCCCCCCCCCCC(=O)N[C@H](CCC(=O)NCCOCCOCC(=O)NCCOCCOCC(=O)NCC(=O)N[C@@H](CC(N)=O)C(=O)N[C@@H](Cc1cccnc1)C(=O)N[C@@H](Cc1c[nH]c2ccccc12)C(=O)N[C@@H](C)C(=O)N[C@H](C(=O)N[C@H](C)C(=O)N[C@@H](Cc1c[nH]cn1)C(=O)N[C@@H](CC(C)C)C(=O)N[C@@H](CCCC)C(N)=O)C(C)C)C(=O)O
Take B1: the “hIP1 GRPR EC50” value stood at 1.8 nM.

As for {C18 diacid}-[γGlu][AEEA][AEEA]GNHWAV[dA]HL[Nle] [Peptide 146], the “hIP1 GRPR EC50” value is 279 nM.

B2: Peptide 145 (peptide)
peptide: {C18 diacid}-[γGlu][AEEA][AEEA]RNHWAV[dA]HL[Nle]-NH2
SMILES: CCCC[C@H](NC(=O)[C@H](CC(C)C)NC(=O)[C@H](Cc1c[nH]cn1)NC(=O)[C@@H](C)NC(=O)[C@@H](NC(=O)[C@H](C)NC(=O)[C@H](Cc1c[nH]c2ccccc12)NC(=O)[C@H](Cc1c[nH]cn1)NC(=O)[C@H](CC(N)=O)NC(=O)[C@H](CCCNC(=N)N)NC(=O)COCCOCCNC(=O)COCCOCCNC(=O)CC[C@H](NC(=O)CCCCCCCCCCCCCCCCC(=O)O)C(=O)O)C(C)C)C(N)=O
Turning to B2, the “hIP1 GRPR EC50” value was determined as 5.2 nM.

B3: Peptide 149 (peptide)
peptide: {C20 diacid}-[γGlu][AEEA][AEEA]GNHWAV[dA]HL[Nle]-NH2
SMILES: CCCC[C@H](NC(=O)[C@H](CC(C)C)NC(=O)[C@H](Cc1c[nH]cn1)NC(=O)[C@@H](C)NC(=O)[C@@H](NC(=O)[C@H](C)NC(=O)[C@H](Cc1c[nH]c2ccccc12)NC(=O)[C@H](Cc1c[nH]cn1)NC(=O)[C@H](CC(N)=O)NC(=O)CNC(=O)COCCOCCNC(=O)COCCOCCNC(=O)CC[C@H](NC(=O)CCCCCCCCCCCCCCCCCCC(=O)O)C(=O)O)C(C)C)C(N)=O
Turning to B3, the “hIP1 GRPR EC50” value turned out to be 1.89 nM.

B4: Peptide 150 (peptide)
peptide: {C20 diacid}-[γGlu][AEEA][AEEA]GRHWAV[dA]HL[Nle]-NH2
SMILES: CCCC[C@H](NC(=O)[C@H](CC(C)C)NC(=O)[C@H](Cc1c[nH]cn1)NC(=O)[C@@H](C)NC(=O)[C@@H](NC(=O)[C@H](C)NC(=O)[C@H](Cc1c[nH]c2ccccc12)NC(=O)[C@H](Cc1c[nH]cn1)NC(=O)[C@H](CCCNC(=N)N)NC(=O)CNC(=O)COCCOCCNC(=O)COCCOCCNC(=O)CC[C@H](NC(=O)CCCCCCCCCCCCCCCCCCC(=O)O)C(=O)O)C(C)C)C(N)=O
As for B4, the “hIP1 GRPR EC50” value turned out to be 4.09 nM.

Turning to {C20 diacid}-[γGlu][AEEA][AEEA]GNHWAV[dA]HL[Nle] [Peptide 148], the “hIP1 GRPR EC50” value is 126 nM.

B5: Peptide 147 (peptide)
peptide: {C18 diacid}-[γGlu][AEEA][AEEA]GQHWAV[dA]HL[Nle]-NH2
SMILES: CCCC[C@H](NC(=O)[C@H](CC(C)C)NC(=O)[C@H](Cc1c[nH]cn1)NC(=O)[C@@H](C)NC(=O)[C@@H](NC(=O)[C@H](C)NC(=O)[C@H](Cc1c[nH]c2ccccc12)NC(=O)[C@H](Cc1c[nH]cn1)NC(=O)[C@H](CCC(N)=O)NC(=O)CNC(=O)COCCOCCNC(=O)COCCOCCNC(=O)CC[C@H](NC(=O)CCCCCCCCCCCCCCCCC(=O)O)C(=O)O)C(C)C)C(N)=O
B5: the “hIP1 GRPR EC50” value came to 5.72 nM.
